In patent US20240352127A1 one finds MFI data, which are given here for one substance.

Assay [1] addresses human PD-L1 on cells (human) (UniProt Q9NZQ7). Nature of the assay: FACS staining of HCT116 cells with control antibody (expression profile), triplicates.
The target is the same in assay [2]. Nature of the assay: FACS staining of MDA-MB-231 cells with control antibody (expression profile), triplicates.

Chain of human PD-L1 on cells (human) (Q9NZQ7 19-290 limits assumed): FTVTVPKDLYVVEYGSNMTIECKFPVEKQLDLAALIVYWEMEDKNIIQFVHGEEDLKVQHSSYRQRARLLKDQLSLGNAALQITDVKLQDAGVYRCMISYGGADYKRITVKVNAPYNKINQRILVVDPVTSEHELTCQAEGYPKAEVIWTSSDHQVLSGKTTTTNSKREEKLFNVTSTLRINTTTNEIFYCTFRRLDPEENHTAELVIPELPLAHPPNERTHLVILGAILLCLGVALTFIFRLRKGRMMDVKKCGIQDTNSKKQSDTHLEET

With anti-PD-L1 RG7446 MPDL3280A (antibody), the MFI amounted to 10900 MFI in assay [1] and 74600 MFI in assay [2].
